In publication doi:10.1101/2025.10.03.680225:

How the values were obtained:
GAPDH-wt = GAPDH-wt (UniProt P04406 1-335); test: fluorescence anisotropy
GAPDH-K215E = GAPDH-K215E (UniProt P04406 1-335, K215E); test: fluorescence anisotropy
GAPDH-K215E, sequence (P04406 whole entry K215E): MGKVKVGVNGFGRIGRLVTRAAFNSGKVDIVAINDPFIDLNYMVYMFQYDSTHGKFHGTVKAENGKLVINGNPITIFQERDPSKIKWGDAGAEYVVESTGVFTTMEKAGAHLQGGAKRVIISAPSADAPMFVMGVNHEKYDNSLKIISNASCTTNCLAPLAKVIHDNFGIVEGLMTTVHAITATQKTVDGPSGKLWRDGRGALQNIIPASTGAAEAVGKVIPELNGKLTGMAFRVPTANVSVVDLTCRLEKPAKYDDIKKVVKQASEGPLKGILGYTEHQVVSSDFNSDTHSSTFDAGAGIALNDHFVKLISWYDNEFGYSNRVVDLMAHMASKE

GAPDH-wt, sequence (P04406 whole entry): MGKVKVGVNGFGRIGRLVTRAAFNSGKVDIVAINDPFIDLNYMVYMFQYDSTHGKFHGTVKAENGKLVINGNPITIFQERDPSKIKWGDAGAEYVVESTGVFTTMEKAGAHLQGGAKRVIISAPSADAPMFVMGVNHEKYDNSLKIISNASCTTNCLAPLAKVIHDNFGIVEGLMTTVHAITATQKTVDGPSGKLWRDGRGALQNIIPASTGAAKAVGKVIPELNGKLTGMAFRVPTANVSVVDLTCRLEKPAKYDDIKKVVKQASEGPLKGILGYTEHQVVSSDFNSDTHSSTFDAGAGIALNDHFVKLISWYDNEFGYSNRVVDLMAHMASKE

B1: 20A-RNA (ssRNA)
RNA: AAAAAAAAAAAAAAAAAAAA
In the case of B1, the Kd (GAPDH-wt) is reported as 132 ± 10 nM and the Kd (GAPDH-K215E) is reported as 3100 ± 217 nM.
